Sequences and labels used below:
B1: Saccharomyces cerevisiae Elp456 subcomplex (hetero-hexameric ring) (complex)
chain 1: MSFRKRGEILNDRGSGLRGPLLRGPPRTSSTPLRTGNRRAPGNVPLSDTTARLKKLNIADESKTKMGLDSSHVGVRPSPATSQPTTSTGSADLDSILGHMGLPLGNSVLVEEQSTTEFHSILGKLFAAQGIVHNRISDSSADKTRNGDTHVIVLSLNQMFAKELPGIYKGSRKQMKKNLISEEESKVTVQNLNETQRSTPSRYKDLKIAWKYKLADEKRLGSPDRDDIQQNSEYKDYNHQFDITTRLMPAPIASELTFIAPTQPVSTILSQIEQTIKRNDKKLIRIVIPSLLHPAMYPPKMFESSEIIGLMHGVRSLVKKYYERVVLFASISIDIITPPLLVLLRNMFDSVINLEPFNQEMTEFLERVYKSQPGKIQHGLVHILKLPVFTDRGEMRVLKSEWAFKNGRKKFEIEQWGIPVDDAEGSAASEQSHSHSHSDEISHNIPAKKTKISLDY
chain 2: MASSSHNPVILLKRILSLTESSPFILCLDSIAQTSYKLIQEFVHQSKSKGNEYPIVYISFETVNKPSYCTQFIDATQMDFVHLVKQIISYLPAATATQAKKHMVIIDSLNYISTEYITRFLSEIASPHCTMVATYHKDIKDENRTVIPDWNNNYPDKLTLLQFMATTIVDIDVVLTGTLDTEEVSELLNEFRIPRGLNNDIFQLRLVNKRKSGRSLEYDFIVNSNTHEYELLSTTKQEEESSSNGLETPEMLQGLTTFNLGTSNKQKLAKDQVALPFLEAQSFGQGGAIVYEYEKDDDYDEEDPYEDPF
chain 3: MGSVQRQDLVLFSDQSVLPAHFFQDSNSHNLFFITHQSCTQPLWMINALVETHVLGSPSSLNESSSSMLPSSTRSHAVLASFIHEQNYFTNSLNKLKIPSNNYNVLDFLSDFIVNNIHNKPRDKILSDVLAKFSAAIQNNPTDTIVIIEQPELLLSLVSGLTCSELNNKFITPLLRQCKVLIIVSNSDIFNIDEYDASVHSSNLQNFYKSSFIKSMINLNLNPLKTGFAKDVTGSLHVCRGGAPIATSNTSLHVVENEYLYLNEKESTKLFYR
notes: Elp4, S. cerevisiae, full-length ORF; Elp5, S. cerevisiae, full-length ORF; Elp6, S. cerevisiae, full-length ORF; Symmetric dimer of trimers; also called ScElp456; yeast Elp456; source: S. cerevisiae DS1-2b, overexpressed, purified with ScElongator (IgG Sepharose with TEV elution, StrepTrap, Superose 6); free rings seen in one data set; not shown: protein A (Staphylococcus aureus), C-terminal, …
B2: Saccharomyces cerevisiae Elp4 (natural protein, UniProt Q02884 1-456, looked up)
chain: B1 chain 1
notes: Elp4, S. cerevisiae, full-length ORF; also called ScElp4; source: S. cerevisiae DS1-2b, overexpressed, purified within ScElongator
B3: Saccharomyces cerevisiae Elp5 (natural protein, UniProt P38874 1-309, looked up)
chain: B1 chain 2
notes: Elp5, S. cerevisiae, full-length ORF; also called ScElp5; source: S. cerevisiae DS1-2b, overexpressed, purified within ScElongator
B4: Saccharomyces cerevisiae Elp6 (natural protein, UniProt Q04868 1-273, looked up)
chain: B1 chain 3
notes: Elp6, S. cerevisiae, full-length ORF; also called ScElp6; source: S. cerevisiae DS1-2b, overexpressed, purified within ScElongator; not shown: protein A (Staphylococcus aureus), C-terminal, cleaved

Common to all, as to details: both partners purified
Assay [1] has as its target T1, Saccharomyces cerevisiae Elp123 subcomplex (Saccharomyces cerevisiae, UniProt Q06706 1-1349; P42935 1-788; Q02908 1-557).
T1 construct: Elp1, S. cerevisiae, full-length ORF; Elp2, S. cerevisiae, full-length ORF; Elp3, S. cerevisiae, full-length ORF; also called ScElp123; yeast Elp123; not shown: Twin-Strep-tag, C-terminal, kept; copies: 2 + 2 + 2
Description: cryo-EM structure; ScElongator purified from overexpressing yeast, native sample (4.35 Å) and BS3-stabilised sample (6.6 Å; two-lobed map 17.2 Å); sample buffer 20 mM HEPES pH 7.5, 100 mM NaCl, 3 mM DTT.

In assay [2] the target is T2, Saccharomyces cerevisiae Elp1 (Saccharomyces cerevisiae, UniProt Q06706 1-1349).
T2 construct: Elp1, S. cerevisiae, full-length ORF; also called ScElp1; source: S. cerevisiae DS1-2b, overexpressed, purified within ScElongator
T2 sequence (looked up): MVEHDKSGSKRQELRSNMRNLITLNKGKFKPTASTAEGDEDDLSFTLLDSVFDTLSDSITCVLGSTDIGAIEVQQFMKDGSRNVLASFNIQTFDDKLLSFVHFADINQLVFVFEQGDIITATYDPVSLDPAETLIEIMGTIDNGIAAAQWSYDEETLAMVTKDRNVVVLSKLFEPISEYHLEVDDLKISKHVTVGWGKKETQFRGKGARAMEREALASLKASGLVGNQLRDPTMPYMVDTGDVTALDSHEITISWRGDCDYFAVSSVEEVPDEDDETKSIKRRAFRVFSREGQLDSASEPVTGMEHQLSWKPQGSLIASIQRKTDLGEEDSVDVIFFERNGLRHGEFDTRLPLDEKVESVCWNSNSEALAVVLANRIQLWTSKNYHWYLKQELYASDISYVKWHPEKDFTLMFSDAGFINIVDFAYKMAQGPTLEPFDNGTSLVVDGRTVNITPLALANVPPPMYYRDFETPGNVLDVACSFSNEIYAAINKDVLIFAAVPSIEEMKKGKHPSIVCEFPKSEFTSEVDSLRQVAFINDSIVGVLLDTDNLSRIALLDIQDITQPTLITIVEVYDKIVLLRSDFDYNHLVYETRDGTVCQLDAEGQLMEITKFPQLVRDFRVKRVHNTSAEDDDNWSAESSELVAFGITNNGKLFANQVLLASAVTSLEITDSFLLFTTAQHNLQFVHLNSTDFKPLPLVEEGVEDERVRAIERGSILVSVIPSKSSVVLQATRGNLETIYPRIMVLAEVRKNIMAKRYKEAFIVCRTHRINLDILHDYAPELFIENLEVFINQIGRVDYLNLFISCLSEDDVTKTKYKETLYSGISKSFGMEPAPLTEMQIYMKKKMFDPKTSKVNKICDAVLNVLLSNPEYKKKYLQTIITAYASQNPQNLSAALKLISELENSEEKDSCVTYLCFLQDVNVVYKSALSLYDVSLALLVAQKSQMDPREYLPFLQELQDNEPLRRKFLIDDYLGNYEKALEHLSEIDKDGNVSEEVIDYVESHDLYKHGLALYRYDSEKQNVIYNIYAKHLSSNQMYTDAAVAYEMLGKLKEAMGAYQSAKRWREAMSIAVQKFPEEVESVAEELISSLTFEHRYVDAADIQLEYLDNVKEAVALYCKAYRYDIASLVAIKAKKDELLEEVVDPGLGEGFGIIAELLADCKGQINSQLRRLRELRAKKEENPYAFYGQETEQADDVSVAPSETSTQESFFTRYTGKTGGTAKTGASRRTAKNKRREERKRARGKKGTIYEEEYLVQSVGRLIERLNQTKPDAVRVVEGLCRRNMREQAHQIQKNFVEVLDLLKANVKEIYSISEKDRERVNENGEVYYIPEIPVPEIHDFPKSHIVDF
Described as above.

Assay [3] has as its target T3, Saccharomyces cerevisiae Elp3 (Saccharomyces cerevisiae, UniProt Q02908 1-557).
T3 construct: Elp3, S. cerevisiae, full-length ORF; also called ScElp3; source: S. cerevisiae DS1-2b, overexpressed, purified within ScElongator; not shown: Twin-Strep-tag, C-terminal, kept
T3 sequence (looked up): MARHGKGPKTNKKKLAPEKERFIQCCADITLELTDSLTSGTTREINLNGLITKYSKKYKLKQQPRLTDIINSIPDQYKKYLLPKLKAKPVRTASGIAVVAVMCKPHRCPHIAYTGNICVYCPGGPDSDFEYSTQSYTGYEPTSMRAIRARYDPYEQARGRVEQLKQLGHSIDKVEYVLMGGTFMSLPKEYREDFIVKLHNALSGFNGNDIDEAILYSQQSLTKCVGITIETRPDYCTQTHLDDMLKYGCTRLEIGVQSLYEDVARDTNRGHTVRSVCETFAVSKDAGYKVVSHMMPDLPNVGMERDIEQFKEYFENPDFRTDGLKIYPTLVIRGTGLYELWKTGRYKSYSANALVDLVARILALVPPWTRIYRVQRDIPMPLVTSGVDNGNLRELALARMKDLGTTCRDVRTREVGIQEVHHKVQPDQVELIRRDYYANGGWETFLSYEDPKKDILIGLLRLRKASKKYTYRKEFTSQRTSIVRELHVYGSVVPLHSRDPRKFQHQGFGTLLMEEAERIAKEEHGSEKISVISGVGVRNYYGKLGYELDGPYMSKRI
The description is as above.

The target of assay [4] is B2. Description: cryo-EM structure; free full-length ScElp456 rings found in one data set, 3.7 Å.
Assay [5] has as its target B3. Described as above.

T1 sequence (P42935 whole entry, one chain of several): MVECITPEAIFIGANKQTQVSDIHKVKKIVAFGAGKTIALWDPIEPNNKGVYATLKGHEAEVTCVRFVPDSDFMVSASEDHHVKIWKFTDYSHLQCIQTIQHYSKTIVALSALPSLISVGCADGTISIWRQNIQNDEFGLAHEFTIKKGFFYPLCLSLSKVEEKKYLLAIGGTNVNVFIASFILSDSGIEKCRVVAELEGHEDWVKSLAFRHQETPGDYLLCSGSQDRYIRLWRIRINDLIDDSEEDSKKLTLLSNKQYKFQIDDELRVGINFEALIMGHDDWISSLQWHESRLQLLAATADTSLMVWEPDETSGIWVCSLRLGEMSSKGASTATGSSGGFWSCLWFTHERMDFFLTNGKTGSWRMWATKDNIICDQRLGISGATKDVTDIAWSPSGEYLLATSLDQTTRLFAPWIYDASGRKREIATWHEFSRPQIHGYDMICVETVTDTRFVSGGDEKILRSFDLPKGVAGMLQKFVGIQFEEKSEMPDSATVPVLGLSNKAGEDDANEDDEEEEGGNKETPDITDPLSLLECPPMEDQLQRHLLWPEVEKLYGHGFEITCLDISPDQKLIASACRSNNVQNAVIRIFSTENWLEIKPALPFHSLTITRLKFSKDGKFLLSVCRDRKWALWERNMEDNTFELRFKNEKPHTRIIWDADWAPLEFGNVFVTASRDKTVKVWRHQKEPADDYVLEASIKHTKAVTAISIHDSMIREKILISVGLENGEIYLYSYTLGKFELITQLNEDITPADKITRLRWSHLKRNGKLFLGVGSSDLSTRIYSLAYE

As to B1, the binding result in assay [1] is “binds”.
Turning to B2, the binding result in assay [2] and in assay [3] was “binds” each time.
Take B3: the binding result in assay [4] and in assay [2] was “binds” throughout.
Regarding B4, the binding result in assay [4], in assay [5] and in assay [3] was “binds” throughout.

For the origin of these results see paper PMC10018365, “Cryo-EM structure of the fully assembled Elongator complex” (Nucleic Acids Research, 2023).
